Target: T1, green fluorescent protein (GFP) peptide on H-2Kd (mouse)
T1 peptide: HYLSTQSAL
Test: multimer staining
From the text: FIG. 1 is a pair of graphs showing detection of GFP-specific CD8+ T cells in founder αGFP mice generated by somatic cell nuclear transfer (“SCNT”). Cells were collected from the lymph nodes of founder αGFP mice. The cells were stained for CD8 and an anti-H-2K^d-GFP₂₀₀₋₂₀₈ pentamer. Representative FACS is shown in all 14 founders. Note that these are founder mice and thus chimeric.

B1: GFP-specific T cell receptor (αGFP TCR) of SEQ ID NOs 2 and 4 (TCR, V domains shown)
Valpha: QQKVQQSPESLSVPEGGMASFNCTSSDRNFQYFWWYRQHSGEGPKALMSIFSDGDKKEGRFTAHLNKASLHVSLHIRDSQPSDSALYFCAASHDTNAYKVIFGKGTHLHVLP
Vbeta: DPKIIQKPKYLVAVTGSEKILICEQYLGHNAMYWYRQSAKKPLEFMFSYSYQKLMDNQTASSRFQPQSSKKNHLDLQITALKPDDSATYFCASSQGAGIYNSPLYFAAGTRLTVT
B1: recognises.
